Experimental data taken from patent publication US20210061904A1 (GMAX BIOPHARM, published 2021).

Assays:
[1] = molecular target: T1, human gastric inhibitory polypeptide receptor (hGIPR) (human, UniProt P48546 22-466); test: FACS on CHO-DHFR-hGIPR cells, 1 µM antibody
T1 construct: also called human GIPR; CHO-DHFR-hGIPR
T1 sequence: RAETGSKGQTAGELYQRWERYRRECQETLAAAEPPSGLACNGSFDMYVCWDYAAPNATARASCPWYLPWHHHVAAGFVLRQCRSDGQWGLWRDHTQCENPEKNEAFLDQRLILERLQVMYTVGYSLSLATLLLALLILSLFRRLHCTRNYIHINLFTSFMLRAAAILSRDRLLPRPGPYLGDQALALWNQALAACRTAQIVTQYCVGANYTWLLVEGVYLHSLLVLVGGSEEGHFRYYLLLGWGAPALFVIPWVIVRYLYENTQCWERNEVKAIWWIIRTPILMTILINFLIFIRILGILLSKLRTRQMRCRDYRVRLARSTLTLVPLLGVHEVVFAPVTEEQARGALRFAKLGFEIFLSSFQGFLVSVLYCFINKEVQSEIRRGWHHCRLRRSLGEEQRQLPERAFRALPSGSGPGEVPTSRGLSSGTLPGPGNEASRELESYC
Method: PBS containing 10 mM EDTA was used to detach the CHO-DHFR-hGIPR cells and 10⁵ cells/tube was distributed into 1.5 mL EP tubes, and the supernatant was removed after centrifugation. The negative control sample was resuspended with a loading buffer (PBS, 2% FBS). For the positive control, 200 μL GIPR antibody solution of specific concentration was added to the cells and incubated at room temperature; after incubation, the cells were then centrifuged at 1500 rpm to remove the supernatant, washed with a FACS loading buffer and centrifuged again. The cells were resuspended with addition (200 μL/well) of a FITC labeled goat anti-mouse fluorescent antibody or PE labeled goat anti-human fluorescent antibody at 1:50 dilution and incubated at room temperature for 30 min in the dark. The supernatant was removed after centrifugation, and cells were washed with FACS loading buffer, centrifuged again and resuspended with the loading buffer for FACS analysis. The recombinant anti-hGIPR functional antibody specifically binds to GIPR-expressing CHO-DHFR-GIPR cells.

[2] = molecular target: human GLP-1 receptor (hGLP-1R) (human) (UniProt P43220); test: cell-based or functional assay
[3] = molecular target: T2, human gastric inhibitory polypeptide receptor (hGIPR) (human) (UniProt P48546); test: cell-based or functional assay
T2 sequence: T1 sequence

[4] = molecular target: T1, human gastric inhibitory polypeptide …; test: cell-based or functional assay

Sequence of human GLP-1 receptor (hGLP-1R) (human) (P43220 24-463): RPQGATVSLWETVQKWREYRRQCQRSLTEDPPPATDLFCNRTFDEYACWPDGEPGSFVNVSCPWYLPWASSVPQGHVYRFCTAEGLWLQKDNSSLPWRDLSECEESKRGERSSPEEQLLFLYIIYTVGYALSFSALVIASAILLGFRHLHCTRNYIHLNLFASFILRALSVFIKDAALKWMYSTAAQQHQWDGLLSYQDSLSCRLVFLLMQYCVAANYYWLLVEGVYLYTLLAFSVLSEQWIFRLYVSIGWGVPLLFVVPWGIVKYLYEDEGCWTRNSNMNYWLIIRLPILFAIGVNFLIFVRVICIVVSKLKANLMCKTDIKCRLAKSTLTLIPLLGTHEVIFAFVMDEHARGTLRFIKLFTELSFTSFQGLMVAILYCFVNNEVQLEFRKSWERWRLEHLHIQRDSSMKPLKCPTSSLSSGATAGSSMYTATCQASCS

B1: hGIPR antibody L10H8 (antibody, V domains shown)
VH: QVQLQQSGAEVKKPGSSVKVSCKASGGTFSSYAISWVRQAPGQGLEWMGGIIPTFGTANYAQKFQGRVTITADESTSTAYMELSSLRSEDTAVYYCAQGPIVGAPTDYWGKGTLVTVSS
VL: SYVLTQPPSASGTPGQRVAISCSGSNSNIGSNTVHWYQQLPGAAPKLLIYSNNQRPSGVPDRFSGSNSGTSASLAISRLQSEDEADYYCAAWDDSLNGVVFGGGTKVTVL
notes: Recombinantly expressed complete antibody; Only the variable domains are tied to L10H8; also called Ll0H8
binding result [1]: binds

B2: GIPR antibody/GLP-1 fusion protein GLP-1-Linker-L7H6 (protein, part only; not given: constant regions, not shown: a dimerising Fc or GST)
light, part: HGEGTFTSDVSSYLEGQAAKEFIAWLVKGGGGGSGGGGSGGGGSDIVLTQSPASLAVSPGQRATITCRASQSVNTAVYSYIHWYQQKPGQPPKLLIKYASNLESGVPARFSGSGSGTDFTLTINPVEANDAANYYCQHSFDFPYTFGGGTKVEIKR
heavy, part: QVQLQESGPGLVKPSQTLSLTCTVSGYSITSDYAWNWIRQPPGKGVEWMGYISYRGIATYKPSLKSRITISRDTSKNQFSLKLSSVTAADTAVYYCVRGEYGPGNFDFWGQGTTVTVSS
EC50, CRE-Luciferase reporter gene assay on CHO-DHFR- cells co-expressing hGLP1R [2]: 0.04 nM | IC50, direct cAMP assay, antagonism of GIP (50 pM) activation of hGIPR on CHO-DHFR cells [3]: 14.9 nM

B3: hGIPR antibody L7H6 (antibody, V domains shown)
VH: B2 heavy, part
VL: DIVLTQSPASLAVSPGQRATITCRASQSVNTAVYSYIHWYQQKPGQPPKLLIKYASNLESGVPARFSGSGSGTDFTLTINPVEANDAANYYCQHSFDFPYTFGGGTKVEIKR
IC50, direct cAMP assay, antagonism of GIP (50 pM) activation of hGIPR on CHO-DHFR cells [4]: 7.6 nM
